Experimental data taken from PMC6506550 (Nature Communications, 2019).

B1: CR9501 IgG (antibody, V domains shown)
VH: QVQLVQSGPGLVKPSQTLALTCTVSGASINSDNYYWTWIRQRPGGGLEWIGHISYTGNTYYTPSLKSRLSMSLETSQSQFSLRLTSVTAADSAVYFCAACGAYVLISNCGWFDSWGQGTQVTVSS
VL: EIVMTQSPSSLSASIGDRVTITCQASQDISTYLNWYQQKPGQAPRLLIYGASNLETGVPSRFTGSGYGTDFSVTISSLQPEDIATYYCQQYQYLPYTFAPGTKVEIK
notes: also called CF-647-labeled CR9501 IgG
B2: CR9501 Fab (Fab, V domains shown)
VH: B1 VH
VL: B1 VL

What was measured:
Test in all cases: flow cytometry on cells
[1] = biological target: full-length wild-type RSV F on the cell surface (respiratory syncytial virus (strain not stated)) (UniProt P03420)
[2] = biological target: T1, RSV F variant in which the cytoplasmic tail was replaced with a Foldon trimerization motif, on the cell … (Respiratory syncytial virus, strain not …, UniProt P03420, stabilised); settings: one partner purified
T1 construct: source: FreeStyle 293-F or HeLa cells, cotransfected with furin, on the cell surface; not shown: Foldon trimerization motif, C-terminal, kept

[3] = biological target: T2, full-length RSV F with the PR-DM stabilizing mutations, on the cell surface (Respiratory syncytial virus, strain not …, UniProt P03420, N67I | S215P); settings: one partner purified
T2 construct: source: FreeStyle 293-F, cotransfected with furin, on the cell surface

[4] = biological target: T3, full-length wild-type RSV F on the cell surface (Respiratory syncytial virus, …, UniProt P03420); settings: one partner purified
T3 construct: also called full-length wild-type F; full-length RSV F; source: FreeStyle 293-F or HeLa cells, cotransfected with furin, on the cell surface

[5] = biological target: T4, full-length RSV F with the DS-Cav1 stabilizing mutations, on the cell surface (Respiratory syncytial virus, strain not …, UniProt P03420, S155C | S290C | S190F | V207L); settings: one partner purified
T4 construct: source: FreeStyle 293-F, cotransfected with furin, on the cell surface

Molecule | percent of CF-647-labeled CR9501 IgG binding blocked [1] [%] | binding result [2] | binding result [3] | binding result [4] | binding result [5]
motavizumab Fab | < 20 |  |  |  | 
B1 |  | binds | binds | binds | binds
B2 |  | binds |  |  | 
